Patent US20250250343A1 (UNITY BIOTECHNOLOGY, published 2025)
Read-outs that look alike come from different tables or passages of the source.

How the values were obtained:
Assay in all cases: cell-based or functional assay
[1] = target: T1, VEGF (human, UniProt P15692-4)
[2] = target: T2, human Tie2 (human, UniProt Q02763 23-1124)
[3] = target: T1, VEGF; remark: listed apart in the source
[4] = target: T1, VEGF; remark: listed apart in the source
[5] = target: T2, human Tie2; remark: listed apart in the source
[6] = target: T2, human Tie2; remark: listed apart in the source
[7] = target: T2, human Tie2; remark: listed apart in the source
[8] = target: T2, human Tie2; remark: listed apart in the source
[9] = target: T1, VEGF; remark: listed apart in the source
[10] = target: T2, human Tie2; remark: listed apart in the source
[11] = target: T2, human Tie2; remark: listed apart in the source
[12] = target: T2, human Tie2; remark: listed apart in the source

T2 sequence (Q02763 23-1124): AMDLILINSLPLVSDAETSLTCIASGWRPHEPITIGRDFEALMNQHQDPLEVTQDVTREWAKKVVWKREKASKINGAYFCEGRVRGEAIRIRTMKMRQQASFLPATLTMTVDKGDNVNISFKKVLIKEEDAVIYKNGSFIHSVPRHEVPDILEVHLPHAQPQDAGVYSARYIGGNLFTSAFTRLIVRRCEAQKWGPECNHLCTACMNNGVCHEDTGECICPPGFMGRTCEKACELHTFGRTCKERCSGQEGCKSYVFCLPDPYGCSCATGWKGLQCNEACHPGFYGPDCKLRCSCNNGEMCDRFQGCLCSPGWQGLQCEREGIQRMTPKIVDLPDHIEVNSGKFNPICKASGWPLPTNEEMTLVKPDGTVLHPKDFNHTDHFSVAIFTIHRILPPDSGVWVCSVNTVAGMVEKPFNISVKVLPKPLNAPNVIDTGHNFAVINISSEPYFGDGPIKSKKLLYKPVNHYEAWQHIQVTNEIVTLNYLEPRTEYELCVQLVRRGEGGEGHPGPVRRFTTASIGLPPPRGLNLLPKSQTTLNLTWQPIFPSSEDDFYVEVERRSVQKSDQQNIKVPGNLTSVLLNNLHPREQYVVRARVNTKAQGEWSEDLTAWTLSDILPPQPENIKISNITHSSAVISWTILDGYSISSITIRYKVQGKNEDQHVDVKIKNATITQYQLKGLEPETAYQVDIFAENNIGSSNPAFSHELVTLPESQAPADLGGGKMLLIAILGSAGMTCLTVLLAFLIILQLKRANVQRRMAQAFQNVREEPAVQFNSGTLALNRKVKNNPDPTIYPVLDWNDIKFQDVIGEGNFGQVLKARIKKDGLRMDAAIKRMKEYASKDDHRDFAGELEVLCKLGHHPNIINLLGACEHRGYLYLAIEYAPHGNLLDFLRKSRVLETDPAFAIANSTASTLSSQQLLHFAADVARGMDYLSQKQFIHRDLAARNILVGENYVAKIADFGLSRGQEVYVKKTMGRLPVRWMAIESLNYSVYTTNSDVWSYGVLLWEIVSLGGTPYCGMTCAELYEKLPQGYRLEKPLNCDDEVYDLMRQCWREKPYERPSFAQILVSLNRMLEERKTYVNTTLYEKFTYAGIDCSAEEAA
T1 sequence (P15692 other isoform, or with tags, fused parts or gaps limits assumed): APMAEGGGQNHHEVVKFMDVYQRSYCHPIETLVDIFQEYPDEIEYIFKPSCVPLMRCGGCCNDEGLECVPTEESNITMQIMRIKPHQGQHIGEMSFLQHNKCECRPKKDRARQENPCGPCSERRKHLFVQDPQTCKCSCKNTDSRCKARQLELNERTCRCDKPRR

B1: #2 (bispecific antibody, human IgG1, kappa, L234A L235A)
heavy chain: DVQLVESGGGVVRPGESLRLSCTASGFTFDSYGMSWVRQAPGKGLEWVSSINVGDNTYYADSVRGRFIISRDSSRNTLYLQMNSLTAEDTAVYYCANWNSFFDYWGLGTLVTVSSASTKGPSVFPLAPSSKSTSGGTAALGCLVKDYFPEPVTVSWNSGALTSGVHTFPAVLQSSGLYSLSSVVTVPSSSLGTQTYICNVNHKPSNTKVDKKVEPKSCDKTHTCPPCPAPEAAGGPSVFLFPPKPKDTLMISRTPEVTCVVVDVSHEDPEVKFNWYVDGVEVHNAKTKPREEQYNSTYRVVSVLTVLHQDWLNGKEYKCKVSNKALGAPIEKTISKAKGQPREPQVYTLPPSREEMTKNQVSLTCLVKGFYPSDIAVEWESNGQPENNYKTTPPVLDSDGSFFLYSKLTVDKSRWQQGNVFSCSVMHEALHNHYTQKSLSLSPGKGGGGSGGGGSDIQMTQSPSSLSASVGDRVTITCRASQVIRRSLAWYQQKPGKAPKLLIYAASNLASGVPSRFSGSGSGTDFTLTISSLQPEDFATYYCQQSNTSPLTFGQGTKVEIKGQSSRSSGGGGSSGGGGSEVQLVESGGGLVQPGGSLRLSCAASGFSINGSWIFWVRQAPGKGLEWVGAIWPFGGYTHYADSVKGRFTISADTSKNTAYLQMNSLRAEDTAVYYCARWGHSTSPWAMDYWGQGTLVTVSS
light chain (kappa): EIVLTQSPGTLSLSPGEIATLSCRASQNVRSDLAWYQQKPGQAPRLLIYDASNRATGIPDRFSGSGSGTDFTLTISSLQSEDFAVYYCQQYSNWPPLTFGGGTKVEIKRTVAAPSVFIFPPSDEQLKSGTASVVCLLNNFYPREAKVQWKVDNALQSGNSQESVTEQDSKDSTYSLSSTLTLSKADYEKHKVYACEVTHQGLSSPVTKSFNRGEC
IC50 (read off the curve); % VEGF activity, KDR/NFAT-RE HEK293 luciferase reporter [Panel A] [1]: ~1 nM | EC50, pTie2 in HUVEC (in vitro potency; the sheet's head prints no unit, EC50 in nM per legend paragraph 17) [2]: 2.1 nM | EC50, VEGF neutralisation, KDR/NFAT-RE HEK293 luciferase reporter (the sheet's head prints no unit, EC50 in nM per legend paragraph 17) [3]: 0.9 nM

B2: #11 (bispecific antibody, human IgG1, kappa, L234A L235A)
heavy chain: DVQLVESGGGVVRPGESLRLSCTASGFTFDSYGMSWVRQAPGKGLEWVSSINVGDNTYYADSVRGRFIISRDSSRNTLYLQMNSLTAEDTAVYYCANWNSFFDYWGLGTLVTVSSASTKGPSVFPLAPSSKSTSGGTAALGCLVKDYFPEPVTVSWNSGALTSGVHTFPAVLQSSGLYSLSSVVTVPSSSLGTQTYICNVNHKPSNTKVDKKVEPKSCDKTHTCPPCPAPEAAGGPSVFLFPPKPKDTLMASRTPEVTCVVVDVSHEDPEVKFNWYVDGVEVHNAKTKPREEQYNSTYRVVSVLTVLAQDWLNGKEYKCKVSNKALGAPIEKTISKAKGQPREPQVYTLPPSREEMTKNQVSLTCLVKGFYPSDIAVEWESNGQPENNYKTTPPVLDSDGSFFLYSKLTVDKSRWQQGNVFSCSVMHEALHNAYTQKSLSLSPGKGGGGSGGGGSDIQLTQSPSSLSASVGDRVTITCSASQDISNYLNWYQQKPGKAPKVLIYFTSSLHSGVPSRFSGSGSGTDFTLTISSLQPEDFATYYCQQYSTVPWTFGQGTKVEIKGQSSRSSGGGGSSGGGGSEVQLVESGGGLVQPGGSLRLSCAASGYDFTHYGMNWVRQAPGKGLEWVGWINTYTGEPTYAADFKRRFTFSLDTSKSTAYLQMNSLRAEDTAVYYCAKYPYYYGTSHWYFDVWGQGTLVTVSS
light chain (kappa): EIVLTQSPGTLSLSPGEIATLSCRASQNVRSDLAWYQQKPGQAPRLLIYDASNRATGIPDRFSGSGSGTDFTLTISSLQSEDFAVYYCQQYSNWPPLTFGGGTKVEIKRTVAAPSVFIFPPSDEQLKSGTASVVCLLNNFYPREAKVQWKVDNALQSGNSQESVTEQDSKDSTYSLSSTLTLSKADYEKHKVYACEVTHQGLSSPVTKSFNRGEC
EC50, VEGF neutralisation, KDR/NFAT-RE HEK293 luciferase reporter (the sheet's head prints no unit, EC50 in nM per legend paragraph 17) [3]: 0.107 nM

B3: #13 (bispecific antibody, human IgG1, kappa, L234A L235A)
heavy chain: DVQLVESGGGVVRPGESLRLSCTASGFTFDSYGMSWVRQAPGKGLEWVSSINVGDNTYYADSVRGRFIISRDSSRNTLYLQMNSLTAEDTAVYYCANWNSFFDYWGLGTLVTVSSASTKGPSVFPLAPSSKSTSGGTAALGCLVKDYFPEPVTVSWNSGALTSGVHTFPAVLQSSGLYSLSSVVTVPSSSLGTQTYICNVNHKPSNTKVDKKVEPKSCDKTHTCPPCPAPEAAGGPSVFLFPPKPKDTLMISRTPEVTCVVVDVSHEDPEVKFNWYVDGVEVHNAKTKPREEQYNSTYRVVSVLTVLHQDWLNGKEYKCKVSNKALGAPIEKTISKAKGQPREPQVYTLPPSREEMTKNQVSLTCLVKGFYPSDIAVEWESNGQPENNYKTTPPVLDSDGSFFLYSKLTVDKSRWQQGNVFSCSVMHEALHNHYTQKSLSLSPGKKEHVRVFTSNKKTMLGSSAACTYLGQDSRTVGDITLTSLFKKMESGSQTKLDRNVLKKHQHKSSPYEWNFDIGVNLETRATCNLVLKEGVSLEIGHSPSLVVDIITNTQRHTLYNTKYLHGNVTAECTLLGIEKYTANSIIFGKRSDWIIRKGDPILTDLPFKKLTVTINPSTVRCPIVLERGETMHIIEPIESYMEVFPRGTDS
light chain (kappa): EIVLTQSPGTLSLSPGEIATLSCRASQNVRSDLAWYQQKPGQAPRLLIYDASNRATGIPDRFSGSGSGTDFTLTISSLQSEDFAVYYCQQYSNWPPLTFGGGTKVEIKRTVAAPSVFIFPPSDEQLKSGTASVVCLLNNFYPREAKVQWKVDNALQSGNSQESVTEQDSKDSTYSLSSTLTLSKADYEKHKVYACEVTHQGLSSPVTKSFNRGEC
EC50, VEGF neutralisation, KDR/NFAT-RE HEK293 luciferase reporter [4]: 0.854 nM

B4: Construct #1 (bispecific antibody, human IgG1, kappa, L234A L235A)
heavy: DVQLVESGGGVVRPGESLRLSCTASGFTFDSYGMSWVRQAPGKGLEWVSSINVGDNTYYADSVRGRFIISRDSSRNTLYLQMNSLTAEDTAVYYCANWNSFFDYWGLGTLVTVSSASTKGPSVFPLAPSSKSTSGGTAALGCLVKDYFPEPVTVSWNSGALTSGVHTFPAVLQSSGLYSLSSVVTVPSSSLGTQTYICNVNHKPSNTKVDKKVEPKSCDKTHTCPPCPAPEAAGGPSVFLFPPKPKDTLMISRTPEVTCVVVDVSHEDPEVKFNWYVDGVEVHNAKTKPREEQYNSTYRVVSVLTVLHQDWLNGKEYKCKVSNKALGAPIEKTISKAKGQPREPQVYTLPPSREEMTKNQVSLTCLVKGFYPSDIAVEWESNGQPENNYKTTPPVLDSDGSFFLYSKLTVDKSRWQQGNVFSCSVMHEALHNHYTQKSLSLSPGKSDTGRPFVEMYSEIPEIIHMTEGRELVIPCRVTSPNITVTLKKFPLDTLIPDGKRIIWDSRKGFIISNATYKEIGLLTCEATVNGHLYKTNYLTHRQTNTIIDVVLSPSHGIELSVGEKLVLNCTARTELNVGIDFNWEYPSSKHQHKKLVNRDLKTQSGSEMKKFLSTLTIDGVTRSDQGLYTCAASSGLMTKKNSTFVRVHEK
light: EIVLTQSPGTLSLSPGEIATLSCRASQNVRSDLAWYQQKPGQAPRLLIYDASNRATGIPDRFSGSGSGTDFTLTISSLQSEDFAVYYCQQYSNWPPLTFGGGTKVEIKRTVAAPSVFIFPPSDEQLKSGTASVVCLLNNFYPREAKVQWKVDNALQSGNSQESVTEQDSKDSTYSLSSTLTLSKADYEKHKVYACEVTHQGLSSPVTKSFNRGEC
phosphorylated Akt potency in HUVEC cells, against Construct #5 [5]: ~5 fold | EC50, pTie2 in HUVEC (in vitro potency) [6]: 4.2 nM | EC50, VEGF neutralisation, KDR/NFAT-RE HEK293 luciferase reporter [4]: 1.3 nM | EC50, pTie2 in HUVEC, W/ VEGF (panels A-C print 'W/ VEGF 50nM'; paragraph 153 says 20 nM) [Panel D] [7]: 0.39 nM | EC50, pTie2 in HUVEC, W/O VEGF [Panel D] [7]: 1.33 nM | EC50, pTIE2 in HUVEC [Panel C] [8]: 3.56 nM | EC50, VEGF inhibition, KDR/NFAT-RE HEK293 luciferase reporter [Panel C] [9]: 1.6 nM | EC50, pTie2 in HUVEC, W/ VEGF (20 nM VEGF-165 per paragraph 153) [Panel E] [10]: 0.39 nM | EC50, pTie2 in HUVEC, W/O VEGF [Panel E] [10]: 1.33 nM | EC50, pAkt in HUVEC (MSD ELISA) [Panel B] [11]: 1.33 nM | EC50, pAkt in HUVEC (MSD ELISA) [Panel B] [12]: 0.909 nM

B5: Construct #3 (bispecific antibody, human IgG1, kappa, L234A L235A)
heavy: DVQLVESGGGVVRPGESLRLSCTASGFTFDSYGMSWVRQAPGKGLEWVSSINVGDNTYYADSVRGRFIISRDSSRNTLYLQMNSLTAEDTAVYYCANWNSFFDYWGLGTLVTVSSASTKGPSVFPLAPSSKSTSGGTAALGCLVKDYFPEPVTVSWNSGALTSGVHTFPAVLQSSGLYSLSSVVTVPSSSLGTQTYICNVNHKPSNTKVDKKVEPKSCDKTHTCPPCPAPEAAGGPSVFLFPPKPKDTLMISRTPEVTCVVVDVSHEDPEVKFNWYVDGVEVHNAKTKPREEQYNSTYRVVSVLTVLHQDWLNGKEYKCKVSNKALGAPIEKTISKAKGQPREPQVYTLPPSREEMTKNQVSLTCLVKGFYPSDIAVEWESNGQPENNYKTTPPVLDSDGSFFLYSKLTVDKSRWQQGNVFSCSVMHEALHNHYTQKSLSLSPGKGGGGSGGGGSGGGGSSDTGRPFVEMYSEIPEIIHMTEGRELVIPCRVTSPNITVTLKKFPLDTLIPDGKRIIWDSRKGFIISNATYKEIGLLTCEATVNGHLYKTNYLTHRQTNTIIDVVLSPSHGIELSVGEKLVLNCTARTELNVGIDFNWEYPSSKHQHKKLVNRDLKTQSGSEMKKFLSTLTIDGVTRSDQGLYTCAASSGLMTKKNSTFVRVHEK
light: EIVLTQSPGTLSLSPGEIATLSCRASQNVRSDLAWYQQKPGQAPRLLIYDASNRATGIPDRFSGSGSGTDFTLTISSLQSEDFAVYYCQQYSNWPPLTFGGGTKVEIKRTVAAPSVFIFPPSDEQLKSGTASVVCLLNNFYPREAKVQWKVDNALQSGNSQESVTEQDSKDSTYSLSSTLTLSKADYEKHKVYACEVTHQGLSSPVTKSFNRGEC
EC50, pTie2 in HUVEC (in vitro potency) [6]: 3.55 nM | EC50, VEGF neutralisation, KDR/NFAT-RE HEK293 luciferase reporter [4]: 0.245 nM | EC50, pTie2 in HUVEC, W/ VEGF (panels A-C print 'W/ VEGF 50nM'; paragraph 153 says 20 nM) [Panel D] [7]: 0.87 nM | EC50, pTie2 in HUVEC, W/O VEGF [Panel D] [7]: 2.24 nM | EC50, pTIE2 in HUVEC [Panel C] [8]: 2.42 nM | EC50, VEGF inhibition, KDR/NFAT-RE HEK293 luciferase reporter [Panel C] [9]: 0.31 nM | EC50, pAkt in HUVEC (MSD ELISA) [Panel B] [11]: 0.87 nM
